Experimental findings from patent publication US20250326813A1 (ELPIS BIOPHARMACEUTICALS, published 2025) are described below.

Changes are numbered by the printed parent chain. Numbers in names are those of the source.

In assay [1] the target is T1, human IL2Rβ Fc fusion protein (human, UniProt P14784 27-239).
T1 construct: also called ILR2β; CD122; not shown: Fc part
T1 sequence (looked up): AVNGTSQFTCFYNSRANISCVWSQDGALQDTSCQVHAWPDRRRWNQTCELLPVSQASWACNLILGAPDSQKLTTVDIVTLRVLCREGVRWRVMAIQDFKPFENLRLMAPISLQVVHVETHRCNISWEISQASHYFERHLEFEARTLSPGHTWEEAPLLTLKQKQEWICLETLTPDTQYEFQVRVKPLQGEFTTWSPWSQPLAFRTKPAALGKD
The assay can be described thus: ELISA on coated receptor-Fc, anti-His detection; grade by OD450 (weak: 0.3-0.7). How it is done:
(§1) Mammalian cell-produced agonists were characterized for their binding activities to respective IL2Rβ and IL2Rα receptors by ELISA. Briefly, 384 well plate was immobilized with human IL2Rα and IL2Rβ Fc fusion proteins at a final concentration of 2 μg/mL in 1× PBS in total volume of 25 μL per well. The plate was incubated overnight at 4° C. and blocked with 80 μL of superblock per well for 1 hour. The purified clones were added to IL2Rα or IL-2Rβ wells in parallel in duplicates as a titration, with the highest concentration of 1 μM, followed by a 10 point 5× serial dilution of the clones. The binding activity was detected by adding 25 μL of anti-His HRP diluted at 1:5000 in 1× PBST. In between each step, the plate was washed three times with 1× PBST using a plate washer. The plate was then developed with 25 μL of TMB substrate for five minutes and stopped by adding 25 μL of 2N sulfuric acid. The plate was read at OD450 nm Biotek plate reader and the bar graph at 1 μM of IL2 was generated with Prism 8.1 software (FIG. 2).

For assay [2], the target named is T2, human IL2Rα Fc fusion protein (human, UniProt P01589 22-213, limits assumed).
T2 construct: also called CD25; not shown: Fc part
T2 sequence (looked up): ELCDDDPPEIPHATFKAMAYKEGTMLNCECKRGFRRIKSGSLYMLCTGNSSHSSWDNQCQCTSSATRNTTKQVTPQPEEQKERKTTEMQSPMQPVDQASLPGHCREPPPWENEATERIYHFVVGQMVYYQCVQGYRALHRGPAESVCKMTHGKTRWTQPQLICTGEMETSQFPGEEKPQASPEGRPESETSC
The description is as above. How it is done:
as §1

Assay [3] addresses T1, human IL2Rβ Fc fusion protein. The assay can be described thus: ELISA on coated receptor-Fc, anti-His detection, single point 10 µM. How it is done:
(§2) Back-mutations were characterized for their binding activities to IL2Rβ and IL2Rα receptors by ELISA. Briefly, 384 well plate was immobilized with human IL2Rα and IL2Rβ Fc fusion proteins at a final concentration of 2 μg/mL in 1× PBS in total volume of 25 μL per well. The plate was incubated overnight at 4° C. and blocked with 80 μL of superblock per well for 1 hour. […] The IL2 mutant binding was detected by adding 25 μL of anti-His HRP diluted at 1:5000 in 1× PBST. In between each step, the plate was washed three times with 1× PBST using a plate washer. […] The plate was then developed with 25 μL of TMB substrate for five minutes and stopped by adding 25 μl of 2N sulfuric acid. The plate was read at OD450 nm Biotek plate reader (Table 6) and the data was analyzed with Prism 8.1 software to generate bar graph (FIG. 5).

Assay [4] deals with T2, human IL2Rα Fc fusion protein. The assay is described as above. How it is done:
as §2

Assay [5] shares this target. The experiment in a line: ELISA: human IL2Rα Fc fusion coated at 2 µg/mL, purified His-tagged IL2 titrated from 1 µM in 5x steps, anti-His HRP, OD450. The protocol:
as §1

For assay [6], the target named is T1, human IL2Rβ Fc fusion protein. The assay can be described thus: ELISA: human IL2Rβ Fc fusion coated at 2 µg/mL, purified His-tagged IL2 titrated from 1 µM in 5x steps, anti-His HRP, OD450. How it is done: as §1
Assay [7] has the same target. The experiment in a line: ELISA, single concentration, anti-flag detection, E. coli-produced clone. How it is done: (§3) Supernatants containing engineered IL2 mutants were assessed with sandwich ELISA assay to screen for IL2Rα binding. Briefly, 96-well plate was immobilized with human Fc and human IL2Rα, respectively, at a final concentration of 2 μg/mL in 1× PBS in total volume of 50 μL per well. The plate was incubated overnight at 4° C. followed by blocking with 200 μL of superblock per well for 1 hour. 100 μl of supernatant was added to both Fc and IL2Rα immobilized wells and incubated for 1 hour with shaking. The engineered IL2 mutant binding was detected by adding 50 μL of anti-Flag HRP diluted at 1:5000 in 1× PBST. In between each step, the plate was washed three times with 1× PBST in a plate washer. The plate was then developed with 50 μL of TMB substrate for five minutes and stopped by adding 50 μL of 2N sulfuric acid. The plate was read at OD450 nm using a Biotek plate reader and the binding and selectivity was analyzed.
as §3, with “Single clones were next screened for IL2Rβ binding. IL2Rβ binding screening ELISA was developed for the identification of individual” for “Supernatants containing”, “mutant.” for “mutants were assessed with sandwich ELISA assay to screen for IL2Rα binding.”, “IL2Rβ,” for “IL2Rα,”, “IL2Rβ” for “IL2Rα”
(§4) To further triage, the engineered IL2 clones with unique sequences were produced in E. coli. In short, the glycerol stock of each engineered agonist clone was inoculated into TB medium for overnight growth. The next day, cells from the overnight culture were inoculated into TB medium and grown to a cell density of OD₆₀₀ between 0.6-0.8. IPTG was added to a final concentration of 1 mM to induce the expression during culture at 30° C. overnight. The supernatant was collected by centrifugation.

Assay [8] has as its target T2, human IL2Rα Fc fusion protein. Described as above. How it is done:
as §3
as §3, with “Single clones were next screened for IL2Rβ binding. IL2Rβ binding screening ELISA was developed for the identification of individual” for “Supernatants containing”, “mutant.” for “mutants were assessed with sandwich ELISA assay to screen for IL2Rα binding.”, “IL2Rβ,” for “IL2Rα,”, “IL2Rβ” for “IL2Rα”
as §4

Assay [9] addresses T1, human IL2Rβ Fc fusion protein. The assay can be described thus: SPR (Biacore T200), receptor captured on Protein A chip. How it is done:
The assay was run with Biacore T200 control software version 2.0. For each cycle, 1 μg/mL of human IL2Rβ or IL2Rα was captured for 60 seconds at flow rate of 10 μL/min on flow cell 2 in 1× HBSP buffer on Protein A sensor chip. 100 nM and 20 nM of HIS tag purified engineered IL2 mutant was injected onto both reference flow cell 1 and IL2Rβ or IL2Rα captured flow cell 2 for 150 seconds at flow rate of 30 μL/min followed by washing for 300 seconds. The flow cells were then regenerated with Glycine pH 2 for 60 seconds at a flow rate of 30 μL/mins. The kinetics data was analyzed with Biacore T200 evaluation software 3000. The specific binding response unit was derived from subtraction of binding to reference flow cell 1 from target flow cell 2.

Assay [10] concerns the target T2, human IL2Rα Fc fusion protein. The experiment in a line: ELISA on coated receptor-Fc, anti-His detection. How it is done: as §1

B1: EP567, mammalian cell-produced (ligand)
chain: APASSSTKKTQLQLEHLLLDLQMILNGINNYKNPLLTDMLTRKFYMPKKATELKHLQCLEEELKPLEEVLNLAQSKNFHLSLREPIGNIVTSVRELKGSETTFMCEYADETATIVEFLNRWITFSQSIISTLT
notes: also called 2021EP21-C04
Consider B1, for which the OD450 in assay [1] and in assay [2] was 0.3 to 0.7 od in each case.

B2: EP668, EP575 back-mutation clone (ligand)
chain: B1 chain with S81R, L82P, E84G, P85L, N88D, V90S, T91N, S92I, R94L, E95A
notes: Mammalian-produced, His-tagged
In the case of B2, the “Average OD (450 nm)” value is 0.17 OD450 in assay [3] and 0.113 OD450 in assay [4].

B3: EP661, EP575 back-mutation clone (ligand)
chain: APASSSTKKTQLQLEHLLLDLQMILNGINNYKNPLLTDMLTRKFYMPKKATELKHLQCLEEELKPLEEVLNLAQSKNFHLRPKGLISNISNIVLALKGSETTFMCEYADETATIVEFLNRWITFSQSIISTLT
notes: as for B2
In the case of B3, the “Average OD (450 nm)” value is 0.501 OD450 in [3] and 0.11 OD450 in [4].

B4: EP665, EP575 back-mutation clone (ligand)
chain: B3 chain with P82N, K83R, N88D, S90N
notes: as for B2
B4: the “Average OD (450 nm)” value was found to be 0.096 OD450 in assay [3] and 0.077 OD450 in assay [4].

B5: EP576, mammalian cell-produced, with F35L, R38D and F42R (ligand)
chain: APASSSTKKTQLQLEHLLLDLQMILNGINNYKNPLLTDMLTRKFYMPKKATELKHLQCLEEELKPLEEVLNLAQSKNFHLLPRNKISKTKVMVHELKGSETTFMCEYADETATIVEFLNRWITFSQSIISTLT
notes: His-Flag tag not in the parts; also called 2021EP21-C10
In the case of B5, the binding result in assay [5] and in [6] was “no binding (tested: 1000 nM)” in each case.

B6: EP662, EP575 back-mutation clone (ligand)
chain: B3 chain with N88D, S90N
notes: as for B2
B6: the “Average OD (450 nm)” value in [3] and in assay [4] was 0.083 OD450 each time.

B7: EP669, EP575 back-mutation clone (ligand)
chain: B3 chain with N88D
notes: as for B2
In the case of B7, the “Average OD (450 nm)” value in assay [3] and in assay [4] was 0.082 OD450 each time.

B8: EP671, EP575 back-mutation clone (ligand)
chain: B3 chain with S87G, N88D, S90N
notes: as for B2
B8: the “Average OD (450 nm)” value in assay [3] worked out at 0.09 OD450; in assay [4], 0.082 OD450.

B9: EP568 (clone 2021EP16-H06), E. coli-produced (ligand)
chain: APASSSTKKTQLQLEHLLLDLQMILNGINNYKNPKLTRMLTFKFYMPKKATELKHLQCLEEELKPLEEVLNLAQSKNFHLLAKRTVSNMYVRVEELKGSETTFMCEYADETATIVEFLNRWITFSQSIISTLT
B9: the OD450 nm in assay [7] is 0.105 OD450; in assay [8], 1.25 OD450. The binding result in [9] was “no binding (tested: Rmax < 5RU; 100 nM and 20 nM)”.

B10: EP675, EP575 back-mutation clone (ligand)
chain: B3 chain with P82N
notes: as for B2
With B10, the “Average OD (450 nm)” value in assay [3] worked out at 0.082 OD450; in [4], 0.084 OD450.

B11: EP658, EP575 back-mutation clone (ligand)
chain: B3 chain with K83R, N88D
notes: as for B2
For B11, the “Average OD (450 nm)” value turned out to be 0.87 OD450 in assay [3] and 0.12 OD450 in assay [4].

B12: EP581, mammalian cell-produced (ligand)
chain: B3 chain with P82S, K83R, G84E, L85V, I86V, N88R, S90D, N91A, V93I, A95E
notes: also called 2021EP16-C10
With B12, the OD450 in [1] and in assay [2] was 0.3 to 0.7 od throughout.

B13: EP575, mammalian cell-produced (ligand)
chain: B3 chain with P82N, L85I, I86L, S87G, N88D
notes: also called 2021EP16-D09
Consider B13, for which, in assay [5], the binding result is on record as “no binding (tested: 1000 nM)”. The molecule also yielded an OD450 in assay [1] of 0.3 to 0.7 od. Moreover, the figures for the “Average OD (450 nm)” value in assay [3] and in assay [4] were 0.093 OD450 and 0.113 OD450, respectively.

B14: EP573, mammalian cell-produced, with F35L, R38D and F42R (ligand)
chain: APASSSTKKTQLQLEHLLLDLQMILNGINNYKNPLLTDMLTRKFYMPKKATELKHLQCLEEELKPLEEVLNLAQSKNFHLNRTDLVGDVNATIKALKGSETTFMCEYADETATIVEFLNRWITFSQSIISTLT
notes: His-Flag tag not in the parts; also called 2021EP16-E02
As to B14, in assay [10], the binding result is “no binding (tested: OD450 < 0.1; 1 µM)”. In [1], this molecule returned an OD450 of 0.3 to 0.7 od.

B15: EP580, mammalian cell-produced, with F35L, R38D and F42R (ligand)
chain: APASSSTKKTQLQLEHLLLDLQMILNGINNYKNPLLTDMLTRKFYMPKKATELKHLQCLEEELKPLEEVLNLAQSKNFHLRIRDLLNKINELHRYIKGSETTFMCEYADETATIVEFLNRWITFSQSIISTLT
notes: His-Flag tag not in the parts; also called 2021EP16-H09
For B15, the figures for the binding result in [10] and in [6] were “no binding (tested: OD450 < 0.1; 1 µM)” and “no binding (tested: 1000 nM)”, respectively.
